{"source": "paper PMC4504729", "about": "(Journal of Medicinal Chemistry, 2014)", "molecules": {"B1": {"name": "TrkAIg2-NMR (domain or fragment, human)", "chain": "MDDDDDVSFCASVQLHTAVEMHHWCIPFSVDGQPAPSLRWLFNGSVLNETSFIFTEFLEPAANETVRHGCLRLNQPTHVNNGNYTLLAANPCGQASASIMAAFMDNPF"}}, "key": {"[1]": {"molecular_target": "mouse NGF (nerve growth factor, from mouse submaxillary salivary glands) (mouse) (UniProt P01139)", "sequence (P01139 122-241)": "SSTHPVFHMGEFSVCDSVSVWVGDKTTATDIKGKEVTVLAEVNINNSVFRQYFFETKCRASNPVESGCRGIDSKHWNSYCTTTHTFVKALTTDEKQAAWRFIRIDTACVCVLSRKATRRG"}, "[2]": {"molecular_target": "T1, mouse NGF (nerve growth factor, from mouse submaxillary salivary glands) (mouse, UniProt P01139 122-241)", "T1 sequence (P01139 122-241)": "as above", "test": "cell-based or functional assay"}, "[3]": {"molecular_target": "T1, mouse NGF (nerve growth factor, from …)", "test": "SEC; Superdex 75 gel filtration; TrkAIg2-NMR and mouse NGF applied separately and as a 1:1 ratio complex (1 mg/mL of each); 50 mM phosphate buffer, 150 μM NaCl, pH 7.4; sizes from a calibration curve", "settings": "both partners purified"}, "125I-labeled NGF": {"molecular_target": "125I-labeled NGF (UniProt P01139 122-241, 125I label)", "sequence (P01139 122-241)": "as above", "test": "radioligand binding; competition: 15N-labeled TrkAIg2-NMR at varied concentration sequesters 125I-labeled NGF from full-length human TrkA on HEK cells", "settings": "both partners purified"}}, "note": "Values joined by “and” are separate entries in the source; they are usually repeats but may differ in a detail not shown here. Equal values may be shown once.", "data": [{"molecule": "\"wild-type\" TrkAIg2 (TrkAIg2-WT) (domain or fragment)", "values": [{"measurement": "NGF-dependent PC12 cell survival/proliferation (MTS assay, mouse NGF 5 ng/mL), serial dilutions of TrkAIg2-WT; EC50 of the reduction", "setting": "[1]", "value": 480, "unit": "nM"}]}, {"molecule": "B1", "values": [{"measurement": "NGF-dependent PC12 cell survival/proliferation (MTS assay, mouse NGF 5 ng/mL), serial dilutions of TrkAIg2-NMR; EC50 of the reduction", "setting": "[2]", "value": 2100, "unit": "nM"}, {"measurement": "stoichiometry N", "setting": "[3]", "value": "2 TrkAIg2-NMR monomers per NGF dimer"}, {"measurement": "IC50", "setting": "125I-labeled NGF", "value": "~5000 nM and ~2000 nM"}]}]}
